Consider eight molecules from US20250074964A1 (Ambio, Inc., priority 2023, published 2025).

As usually defined, the IC50 is the concentration needed to halve the response being measured. Lower therefore signals inhibition by little substance.

Starred links: 1 amine or outer side, 2 acyl side, 3 side chain; linkers in the order of their positions; H or OH if unused. Non-standard residues stand in square brackets, D forms with d. Residues, ends and D or L forms follow the SMILES beside them. Groups on a side chain read outwards from the residue. No end group written: not given here. *: point of attachment. (CH2)18‑OH = polymethylene chain of 18 CH2 units ending in OH (m = 18), OCCCCCCCCCCCCCCCCCC*; C18 diacid = O=C(O)CCCCCCCCCCCCCCCCC(=O)*; γGlu = O=C(O)[C@H](CCC(=O)[*:2])N[*:1]; Dap = NC[C@H](N)C(=O)O; AEEA = NCCOCCOCC(=O)O; Aib = CC(C)(N)C(=O)O

Assay [1] has as its target human GLP-1R (constitutively expressed on recombinant HEK293 CRE-luciferase reporter cells) (human) (UniProt P43220). As to the kind of experiment: cell-based or functional assay.
The target of a further assay is T1, GLP-1R (Homo sapiens, UniProt P43220).
T1 construct: purchased
In words: Cell-Based Tag-Lite GLP-1R Receptor Binding FRET Assay.

The target of assay [2] is GLP-1R on Tag-Lite Glucagon GLP-1 labeled cells. As to the kind of experiment: Tag-Lite GLP-1R binding FRET competition assay on cells, with 2% HSA; competitor: red agonist.
Assay [3] has the same target. In words: Tag-Lite GLP-1R binding FRET competition assay on cells, absence of HSA; competitor: red agonist.
The target of assay [4] is human GLP-1R (constitutively expressed on recombinant HEK293 CRE-luciferase reporter cells) (human, UniProt P43220 24-463). As to the kind of experiment: cell-based or functional assay.

GLP-1R on Tag-Lite Glucagon GLP-1 labeled cells, sequence (P43220 24-463): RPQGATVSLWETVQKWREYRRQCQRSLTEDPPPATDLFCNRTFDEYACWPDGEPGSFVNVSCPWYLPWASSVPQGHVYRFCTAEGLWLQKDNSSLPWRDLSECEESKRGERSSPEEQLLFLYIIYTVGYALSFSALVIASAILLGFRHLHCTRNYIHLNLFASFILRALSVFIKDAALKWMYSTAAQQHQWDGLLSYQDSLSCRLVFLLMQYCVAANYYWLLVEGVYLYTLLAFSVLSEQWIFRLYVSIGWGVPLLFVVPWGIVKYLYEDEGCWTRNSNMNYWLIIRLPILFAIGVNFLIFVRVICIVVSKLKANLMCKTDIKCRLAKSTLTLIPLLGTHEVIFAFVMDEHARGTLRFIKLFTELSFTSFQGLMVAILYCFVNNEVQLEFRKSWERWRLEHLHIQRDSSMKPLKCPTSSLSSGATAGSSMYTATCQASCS
human GLP-1R (constitutively expressed on recombinant HEK293 CRE-luciferase reporter cells) (human), sequence (P43220 24-463): as above
T1 sequence (P43220 24-463): as above

Consider liraglutide (peptide), for which the biological IC50, CRE-luciferase reporter assay in assay [1] was 30 pM.

As for semaglutide (peptide), in assay [1], the biological IC50, CRE-luciferase reporter assay amounted to 0.4 nM.

Take `CC[C@H](C)[C@H](NC(=O)[C@H](Cc1ccccc1)NC(=O)[C@H](CCC(=O)O)NC(=O)[C@H](CCCCNC(=O)COCCOCCNC(=O)COCCOCCNC(=O)CC[C@H](NC(=O)CCCCCCCCCCCCCCCCC(=O)O)C(=O)O)NC(=O)[C@H](C)NC(=O)[C@H](C)NC(=O)[C@H](CCC(N)=O)NC(=O)CNC(=O)[C@H](CCC(=O)O)NC(=O)C(C)(C)NC(=O)[C@H](Cc1ccc(O)cc1)NC(=O)[C@H](CO)NC(=O)[C@H](CO)NC(=O)[C@@H](NC(=O)[C@H](CC(=O)O)NC(=O)[C@H](CO)NC(=O)[C@@H](NC(=O)[C@H](Cc1ccccc1)NC(=O)[C@@H](NC(=O)CNC(=O)[C@H](CCC(=O)O)NC(=O)C(C)(C)NC(=O)[C@@H](N)Cc1c[nH]cn1)[C@@H](C)O)[C@@H](C)O)C(C)C)C(=O)N[C@@H](C)C(=O)N[C@@H](Cc1c[nH]c2ccccc12)C(=O)N[C@@H](CC(C)C)C(=O)N[C@H](C(=O)NCC(=O)NCC(=O)N1CCC[C@H]1C(=O)N[C@@H](CO)C(=O)N[C@@H](CO)C(=O)NCC(=O)N[C@@H](C)C(=O)N1CCC[C@H]1C(=O)N1CCC[C@H]1C(=O)N1CCC[C@H]1C(=O)N[C@@H](CO)C(N)=O)C(C)C` [APi3713] (H-H[Aib]EGTFTSDVSSY[Aib]EGQAAK([AEEA-AEEA-γGlu-C18 diacid])EFIAWLVGGPSSGAPPPS-NH2; N-terminus assumed): the half-inhibitory concentration (IC50) at GLP-1R (absence of HSA) came out at 1.59 µM; at GLP-1R (with 2% HSA), 95.9 µM.

Regarding H[Aib]EGTFTSDVSSY[Aib]EGQAAK([AEEA-AEEA-γGlu-(CH2)18‑OH])EFIAWLVGGPSSGAPPPS-NH2 [APi3713], the half-inhibitory concentration (IC50) in assay [2] stood at 95.9 µM; in assay [3], 1.59 µM. For the same molecule, the “biological IC50, CRE-luciferase reporter assay” value (shortened to “biological IC50”) in assay [4] was around 0.57 nM.

B1: APi3710 (peptide)
peptide: HXEGTFTSDVSSXLEGQAAKEFIAWLVRGRG
modifications: GLP-1 numbering (first residue is Xaa7): Aib-ψ[CH2NH] at Xaa8 (reduced peptide bond between Aib and the next residue); Aib at Xaa19; ε-amino group of Lys26 substituted with AEEA-AEEA-γ-Glu-(CH2)m-OH, m is 18
Consider B1, for which the concentration for half-maximal inhibition (IC50) in assay [2] was 809 µM; in assay [3] it was 4.08 µM.

B2: APi3711 (peptide)
peptide: B1 peptide
modifications: GLP-1 numbering (first residue is Xaa7): Aib at Xaa8 and Xaa19; ε-amino group of Lys26 substituted with AEEA-AEEA-γ-Glu-(CH2)m-OH, m is 18
Take B2: the IC50 in assay [2] was found to be 77.8 µM; in assay [3] it was 0.898 µM. Moreover, the “biological IC50” value in assay [4] is around 0.66 nM.

With Y[Aib]EGTFTSDVSS[Aib]LEGQAAK([AEEA-AEEA-γGlu-(CH2)18‑OH])EFIAWLVRGRG [APi3709], the IC50 in assay [2] was found to be 129 µM; in assay [3], 2.48 µM. For the same molecule, the “biological IC50” value in assay [4] was around 5.4 nM.

For the molecule H[Aib]EGTFTSDVSS[Aib]LEGQAAK([AEEA-AEEA-γGlu-(CH2)18‑OH])EFIAWLVRG[Dap]G [APi3712], the values for the 50% inhibitory concentration (IC50) in assay [2] and in assay [3] were 179 µM and 1.7 µM, respectively. In addition, in assay [4], the “biological IC50” value is around 0.66 nM.
